Patent US20260098089A1

Experiments:
[1] = target: Human CD7 on cells (CEM and other T-ALL cells, peripheral NK and T cells) (human) (UniProt P09564); experiment: cell-based or functional assay
[2] = target: Cynomolgus monkey (Macaca fascicularis) CD7 protein (soluble) (cynomolgus monkey (Macaca fascicularis)); experiment: SPR, captured mAb, global fit 1:1 model
[3] = target: Human CD7 protein (soluble) (human) (UniProt P09564); experiment: SPR, captured mAb, global fit 1:1 model
Chain of Human CD7 protein (soluble) (human) (P09564 26-180 limits assumed): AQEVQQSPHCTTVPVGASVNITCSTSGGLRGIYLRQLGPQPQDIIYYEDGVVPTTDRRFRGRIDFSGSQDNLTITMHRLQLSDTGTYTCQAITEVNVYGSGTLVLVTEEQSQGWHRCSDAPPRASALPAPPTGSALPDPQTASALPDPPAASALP

Chain of Cynomolgus monkey (Macaca fascicularis) CD7 protein (soluble) (cynomolgus monkey (Macaca fascicularis)) (chain, as listed by the source limits assumed): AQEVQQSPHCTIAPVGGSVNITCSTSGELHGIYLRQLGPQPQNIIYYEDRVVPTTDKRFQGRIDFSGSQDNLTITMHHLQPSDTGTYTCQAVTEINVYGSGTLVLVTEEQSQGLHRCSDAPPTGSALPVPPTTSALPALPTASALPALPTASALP
Chain of Human CD7 on cells (CEM and other T-ALL cells, peripheral NK and T cells) (human) (P09564 26-238 limits assumed): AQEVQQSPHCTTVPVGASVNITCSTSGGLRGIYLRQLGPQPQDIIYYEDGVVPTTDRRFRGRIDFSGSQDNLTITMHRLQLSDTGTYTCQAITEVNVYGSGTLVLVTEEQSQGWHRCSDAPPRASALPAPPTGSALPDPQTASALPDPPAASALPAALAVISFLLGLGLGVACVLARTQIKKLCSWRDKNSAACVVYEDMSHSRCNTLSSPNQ

## RFT2 IgG1 E345R (antibody)
[1]
  CDC assay on CEM cells, EC50 (FIG. 1): < 1 nM
  CDC assay on CEM cells, maximum killing (FIG. 1): 100%
  EC50, CDC assay on CEM cells: 0.22 nM
  Maximum killing, CDC assay on CEM cells: 98.5%

## RFT2 IgG1 (antibody)
[2]
  Kd: 50.8 nM
  koff: 0.0254 s⁻¹
  kon: 529000 M⁻¹ s⁻¹
[3]
  Kd: 6.22 nM
  koff: 0.0037 s⁻¹
  kon: 611000 M⁻¹ s⁻¹

## TH69 (antibody)
[3]
  Kd: 0.279 nM
  koff: 0.000125 s⁻¹
  kon: 451000 M⁻¹ s⁻¹

## TH69 E345R (antibody)
[1]
  EC50, CDC assay on CEM cells: 0.21 nM
  Maximum killing, CDC assay on CEM cells: 87.1%
